US20120270234A1, “DDR2 PROTEIN WITH ACTIVATED KINASE ACTIVITY AND PREPARATION METHOD THEREOF” (KOREA INSTITUTE OF SCIENCE AND TECHNOLOGY, priority 2003, published 2012)

Assays:
c-Src tyrosine kinase = target: T1, c-Src tyrosine kinase (Mus musculus, UniProt P05480, P80A); assay: tyrosine phosphorylation on co-expression with c-Src in insect cells, western blotting with phosphorylated tyrosine specific antibody; format: cell-based, Spodoptera frugiperda; conditions: glutathione bead purified, FIG. 2, FIG. 4
T1 construct: Full length human c-Src gene was per amplified from the vector of pUSE human O-Src wild (Upstate Biotechnology); host or cells: sf9 insect cells co-infected with two recombinant baculoviruses
Text: The results shown in FIG. 4 were obtained by co-expressing a fused protein GST-DDR2 CKD, a fused protein (GST-DDR1b CKD) of the GST and the human DDR1b cytosolic tyrosine kinase domain, a fused protein (GST-Akt1) of the GST and the full-length mouse Akt1 kinase and a fused protein (GST-CDK4) of the GST and the full-length human CDK4 kinase with the c-Src protein without GST tagging in insect cells, respectively; purifying the respective expressed product using glutathione beads; performing SDS-PAGE; and performing the western blotting test using a phosphorylated tyrosine specific antibody and coomassie staining.
The results shown in FIG. 4 have been obtained by co-expressing the full-length c-Src protein together with the fused proteins, GST-DDR2 CKD, GST-DDR1b CKD, GST-Akt1 and GST-CDK4, respectively; in sf9 cells, then performing a western blotting test on each purified GST tagged protein using a phosphorylated tyrosine specific antibody. The presence of a similar amount of each purified GST tagged protein was shown by CBB staining.
GST tagged kinase defective DDR2 cytosolic domain (GST-kd-DDR2-CKD) with intact three tyrosines in the activation loop or with various phenylalanine mutations described in the text were co-expressed with Src in sf9 cells. GST tagged proteins were purified and the same amount of proteins estimated by CBB staining was used for western blotting using P-tyro antibody.
Phospho-tyrosine specific antibody was purchased from Cell Signaling Inc, USA. Specific antibodies to human c-Src, human c-Fyn, and she were obtained from SantaCruz, USA. Samples were boiled for 2 min in 1× lameli sample buffer, and loaded in 10% SDS-PAGE. Proteins were transferred to Immobilon-P membrane (Millipore) and blacked by 10% skim milk in TBS for an hour. The membrane was immunoblotted with antibodies for 2 hours and subsequently washed with 1×TBS five times. Then it was incubated with HRP conjugated secondary antibodies for an hour and protein bands were detected using chemiluminescence kit (Amersham).

sf9 cells = assay: tyrosine phosphorylation by H2O2 processing of expressing insect cells, western blotting with phosphorylated tyrosine specific antibody; format: cell-based, Spodoptera frugoperda; conditions: 200 μM H2O2 for half of an hour; FIG. 2, FIG. 5
Description: The results shown in FIG. 5 were obtained by solely expressing the fused proteins, GST-DDR2 CKD, the GST-DDR1b CKD, the GST-CDK4 and the GST-CDK1, respectively, in insect cells; processing with 200 μM of H2O2 for half of an hour; purifying the respective expressed product using glutathione beads; performing the SDS-PAGE; and performing the western blotting test using an phosphorylated tyrosine specific antibody and coomassie staining.
The results shown in FIG. 5 have been obtained by solely expressing GST-DDR2 CKD, GST-DDR1b CKD, GST-CDK4 and GST-CDK1, respectively in sf9 cells; processing each expressed cells with H2O2 of 200 uM for half of an hour or not; and then purifying the GST tagged protein followed by a western blotting using a phosphorylated tyrosine specific antibody. The presence of a similar amount of each purified GST tagged protein was shown by CBB staining.
The recombinant baculoviruses having the GST-DDR2 CKD coding gene were transfected into sf9 insect cells, by setting MOU to 10 and the cells were cultured for 24 to 72 hours, to express the protein. […], at the concentration of 200 μM was added to the cultured cells. The cells were left for half of an hour, and collected. The collected cells were lysed and the GST-DDR2 CKD was purified from the expressed products, using the glutathione agarose bead column chromatography. The purified protein was subjected to an electrophoresis in 10% polyacrylamaid gel.
After completing the electrophoresis, the protein developed in the gel was transferred to nitrocellulose, and then subjected to a western blotting using a phosphorylated tyrosine specific antibody (Cell signaling Inc, USA), to measure the chemiluminescence signal using x-ray film. For the control, the chemical luminescence of the case without H2O2 processing was measured by the method as mentioned above.

Row | Molecule | tyrosine phosphorylation induced by co-expression with c-Src (c-Src tyrosine kinase) | tyrosine phosphorylation induced by H2O2 processing (sf9 cells)
1 | GST-Akt1: fused protein of the GST and the full-length mouse Akt1 kinase, control (protein, left off: a dimerising Fc or GST, fused protein of the GST and the full-length mouse Akt1 kinase, control) MNDVAIVKEGWLHKRGEYIKTWRPRYFLLKNDGTFIGYKERPQDVDQRESPLNNFSVAQCQLMKTERPRPNTFIIRCLQWTTVIERTFHVETPEEREEWATAIQTVADGLKRQEEETMDFRSGSPSDNSGAEEMEVSLAKPKHRVTMNEFEYLKLLGKGTFGKVILVKEKATGRYYAMKILKKEVIVAKDEVAHTLTENRVLQNSRHPFLTALKYSFQTHDRLCFVMEYANGGELFFHLSRERVFSEDRARFYGAEIVSALDYLHSEKNVVYRDLKLENLMLDKDGHIKITDFGLCKEGIKDGATMKTFCGTPEYLAPEVLEDNDYGRAVDWWGLGVVMYEMMCGRLPFYNQDHEKLFELILMEEIRFPRTLGPEAKSLLSGLLKKDPTQRLGGGSEDAKEIMQHRFFANIVWQDVYEKKLSPPFKPQVTSETDTRYFDEEFTAQMITITPPDQDDSMECVDSERRPHFPQFSYSASGTA | poorly induced or never induced | –
2 | GST-DDR1b CKD: fused protein of the GST and the human DDR1b cytosolic tyrosine kinase domain, control (protein, left off: a dimerising Fc or GST, fused protein of the GST and the human DDR1b cytosolic tyrosine kinase domain, control) VLEEELTVHLSVPGDTILINNRPGPREPPPYQEPRPRGNPPHSAPCVPNGSALLLSNPAYRLLLATYARPPRGPGPPTPAWAKPTNTQAYSGDYMEPEKPGAPLLPPPPQNSVPHYAEADIVTLQGVTGGNTYAVPALPPGAVGDGPPRVDFPRSRLRFKEKLGEGQFGEVHLCEVDSPQDLVSLDFPLNVRKGHPLLVAVKILRPDATKNARNDFLKEVKIMSRLKDPNIIRLLGVCVQDDPLCMITDYMENGDLNQFLSAHQLEDKAAEGAPGDGQAAQGPTISYPMLLHVAAQIASGMRYLATLNFVHRDLATRNCLVGENFTIKIADFGMSRNLYAGDYYRVQGRAVLPIRWMAWECILMGKFTTASDVWAFGVTLWEVLMLCRAQPFGQLTDEQVIENAGEFFRDQGRQVYLSRPPACPQGLYELMLRCWSRESEQRPPFSQLHRFLAEDALNTV | poorly induced or never induced | poorly induced or never induced
3 | GST-CDK4: fused protein of the GST and the full-length human CDK4 kinase, control (protein, left off: a dimerising Fc or GST, fused protein of the GST and the full-length human CDK4 kinase, control) MATSRYEPVAEIGVGAYGTVYKARDPHSGHFVALKSVRVPNGGGGGGGLPISTVREVALLRRLEAFEHPNVVRLMDVCATSRTDREIKVTLVFEHVDQDLRTYLDKAPPPGLPAETIKDLMRQFLRGLDFLHANCIVHRDLKPENILVTSGGTVKLADFGLARIYSYQMALTPVVVTLWYRAPEVLLQSTYATPVDMWSVGCIFAEMFRRKPLFCGNSEADQLGKIFDLIGLPPEDDWPRDVSLPRGAFPPRGPRPVQSVVPEMEESGAQLLLEMLTFNPHKRISAFRALQHSYLHKDEGNPE | poorly induced or never induced | poorly induced or never induced
